Source: PMC5039417 (2016)

Target: HLA-A*0201 molecules on T2 cells (MHC class I/β2-microglobulin complex) (human (endogenous in T2) | )
Assay: FACS; competition with F1-peptide on T2 cells

For SLSYTNPAV [P7:SLSYTNPAV, MUC1 cytoplasmic tail peptide], the IC50 was 0.419 µg/mL.
